Measured values reported in paper PMC8961631.

Target: glycosylated myrosinase without GST-tag (produced in S. cerevisiae MGY70-myr) (broccoli)
Assay: SEC; Sephacryl S-200 HR column 0.7 x 30 cm, 1 mL of purified myrosinase fraction (1 mg/mL) loaded, 0.3 mL/min, 0.2 M Tris-HCl pH 7.4; mass from a calibration curve with protein standards; self-association, monomer to dimer

glycosylated myrosinase without GST-tag (produced in S. cerevisiae MGY70-myr) (enzyme)
stoichiometry N: 2
